B1: v34891 (parental huTN228 OAA) (antibody, V domains shown)
VH: QVQLQESGPGLVKPSETLSLTCAVSGFSLTSYGVHWIRQPPGKGLEWLGVIWPGGGTNFNSALMSRLTISEDTSKNQVSLKLSSVTAADTAVYYCARDRAYGNYLYAMDYWGQGTLVTVSS
VL: DIQMTQSPSSLSASVGDRVTITCRASESVEYYVTSLMQWYQQKPGKAPKLLIYAASNVDSGVPSRFSGSGSGTDFTLTISSLQPEDIATYYCQQSRKVPFTFGGGTKVEIK
notes: one-arm Fab antibody (OAA) format; also called huTN228 parental one-arm Fab antibody
B2: v37841 (antibody, V domains shown)
VH: QVQLQESGPGLVKPSETLSLTCAVSGFALTSYGVHWIRQPPGKGLEWLGVIWPGGGTNFNSALMSRLTISEDTSKNQVSLKLSSVTAADTAVYYCARDRAYGNYLYAMDYWGQGTLVTVSS
VL: DIQMTQSPSSLSASVGDRVTITCRASESVEYYVTSLMQWYQQKPGKAPKLLIYAASNVDSGVPSRFSGSGSGTDFTLTISSLQPEDIATYYCQQSRKVPFTFGGGTKVEIK
notes: OAA format as v34891; also called huTN228 S1029A (VH) OAA
B3: v37843 (antibody, V domains shown)
VH: QVQLQESGPGLVKPSETLSLTCAVSGFSLASYGVHWIRQPPGKGLEWLGVIWPGGGTNFNSALMSRLTISEDTSKNQVSLKLSSVTAADTAVYYCARDRAYGNYLYAMDYWGQGTLVTVSS
VL: DIQMTQSPSSLSASVGDRVTITCRASESVEYYVTSLMQWYQQKPGKAPKLLIYAASNVDSGVPSRFSGSGSGTDFTLTISSLQPEDIATYYCQQSRKVPFTFGGGTKVEIK
notes: OAA format as v34891; also called huTN228 T1035A (VH) OAA
B4: v37844 (antibody, V domains shown)
VH: QVQLQESGPGLVKPSETLSLTCAVSGFSLTAYGVHWIRQPPGKGLEWLGVIWPGGGTNFNSALMSRLTISEDTSKNQVSLKLSSVTAADTAVYYCARDRAYGNYLYAMDYWGQGTLVTVSS
VL: DIQMTQSPSSLSASVGDRVTITCRASESVEYYVTSLMQWYQQKPGKAPKLLIYAASNVDSGVPSRFSGSGSGTDFTLTISSLQPEDIATYYCQQSRKVPFTFGGGTKVEIK
notes: OAA format as v34891; also called huTN228 S1036A (VH) OAA
B5: v37845 (antibody, V domains shown)
VH: QVQLQESGPGLVKPSETLSLTCAVSGFSLTSAGVHWIRQPPGKGLEWLGVIWPGGGTNFNSALMSRLTISEDTSKNQVSLKLSSVTAADTAVYYCARDRAYGNYLYAMDYWGQGTLVTVSS
VL: DIQMTQSPSSLSASVGDRVTITCRASESVEYYVTSLMQWYQQKPGKAPKLLIYAASNVDSGVPSRFSGSGSGTDFTLTISSLQPEDIATYYCQQSRKVPFTFGGGTKVEIK
notes: OAA format; also called huTN228 Y1037A (VH) OAA
B6: v37847 (antibody, V domains shown)
VH: QVQLQESGPGLVKPSETLSLTCAVSGFSLTSYGVHWIRQPPGKGLEWLGVIWAGGGTNFNSALMSRLTISEDTSKNQVSLKLSSVTAADTAVYYCARDRAYGNYLYAMDYWGQGTLVTVSS
VL: DIQMTQSPSSLSASVGDRVTITCRASESVEYYVTSLMQWYQQKPGKAPKLLIYAASNVDSGVPSRFSGSGSGTDFTLTISSLQPEDIATYYCQQSRKVPFTFGGGTKVEIK
notes: OAA format; also called huTN228 P1058A (VH) OAA
B7: v37851 (antibody, V domains shown)
VH: QVQLQESGPGLVKPSETLSLTCAVSGFSLTSYGVHWIRQPPGKGLEWLGVIWPGGGTAFNSALMSRLTISEDTSKNQVSLKLSSVTAADTAVYYCARDRAYGNYLYAMDYWGQGTLVTVSS
VL: DIQMTQSPSSLSASVGDRVTITCRASESVEYYVTSLMQWYQQKPGKAPKLLIYAASNVDSGVPSRFSGSGSGTDFTLTISSLQPEDIATYYCQQSRKVPFTFGGGTKVEIK
notes: OAA format as v34891; also called huTN228 N1066A (VH) OAA
B8: v37854 (antibody, V domains shown)
VH: QVQLQESGPGLVKPSETLSLTCAVSGFSLTSYGVHWIRQPPGKGLEWLGVIWPGGGTNFNSALMSRLTISEDTSKNQVSLKLSSVTAADTAVYYCARDRAAGNYLYAMDYWGQGTLVTVSS
VL: DIQMTQSPSSLSASVGDRVTITCRASESVEYYVTSLMQWYQQKPGKAPKLLIYAASNVDSGVPSRFSGSGSGTDFTLTISSLQPEDIATYYCQQSRKVPFTFGGGTKVEIK
notes: OAA format as v34891; also called huTN228 Y1110A (VH) OAA
B9: v37855 (antibody, V domains shown)
VH: QVQLQESGPGLVKPSETLSLTCAVSGFSLTSYGVHWIRQPPGKGLEWLGVIWPGGGTNFNSALMSRLTISEDTSKNQVSLKLSSVTAADTAVYYCARDRAYANYLYAMDYWGQGTLVTVSS
VL: DIQMTQSPSSLSASVGDRVTITCRASESVEYYVTSLMQWYQQKPGKAPKLLIYAASNVDSGVPSRFSGSGSGTDFTLTISSLQPEDIATYYCQQSRKVPFTFGGGTKVEIK
notes: OAA format as v34891; also called huTN228 G1111A (VH) OAA
B10: v37856 (antibody, V domains shown)
VH: QVQLQESGPGLVKPSETLSLTCAVSGFSLTSYGVHWIRQPPGKGLEWLGVIWPGGGTNFNSALMSRLTISEDTSKNQVSLKLSSVTAADTAVYYCARDRAYGAYLYAMDYWGQGTLVTVSS
VL: DIQMTQSPSSLSASVGDRVTITCRASESVEYYVTSLMQWYQQKPGKAPKLLIYAASNVDSGVPSRFSGSGSGTDFTLTISSLQPEDIATYYCQQSRKVPFTFGGGTKVEIK
notes: OAA format; also called huTN228 N1111AA (VH) OAA
B11: v37858 (antibody, V domains shown)
VH: QVQLQESGPGLVKPSETLSLTCAVSGFSLTSYGVHWIRQPPGKGLEWLGVIWPGGGTNFNSALMSRLTISEDTSKNQVSLKLSSVTAADTAVYYCARDRAYGNYAYAMDYWGQGTLVTVSS
VL: DIQMTQSPSSLSASVGDRVTITCRASESVEYYVTSLMQWYQQKPGKAPKLLIYAASNVDSGVPSRFSGSGSGTDFTLTISSLQPEDIATYYCQQSRKVPFTFGGGTKVEIK
notes: OAA format as v34891; also called huTN228 L1112AA (VH) OAA
B12: v37868 (antibody, V domains shown)
VH: QVQLQESGPGLVKPSETLSLTCAVSGFSLTSYGVHWIRQPPGKGLEWLGVIWPGGGTNFNSALMSRLTISEDTSKNQVSLKLSSVTAADTAVYYCARDRAYGNYLYAMDYWGQGTLVTVSS
VL: DIQMTQSPSSLSASVGDRVTITCRASESVEYAVTSLMQWYQQKPGKAPKLLIYAASNVDSGVPSRFSGSGSGTDFTLTISSLQPEDIATYYCQQSRKVPFTFGGGTKVEIK
notes: OAA format as v34891; also called huTN228 Y1034A (VL) OAA
B13: v37869 (antibody, V domains shown)
VH: QVQLQESGPGLVKPSETLSLTCAVSGFSLTSYGVHWIRQPPGKGLEWLGVIWPGGGTNFNSALMSRLTISEDTSKNQVSLKLSSVTAADTAVYYCARDRAYGNYLYAMDYWGQGTLVTVSS
VL: DIQMTQSPSSLSASVGDRVTITCRASESVEYYATSLMQWYQQKPGKAPKLLIYAASNVDSGVPSRFSGSGSGTDFTLTISSLQPEDIATYYCQQSRKVPFTFGGGTKVEIK
notes: OAA format as v34891; also called huTN228 V1035A (VL) OAA
B14: v37870 (antibody, V domains shown)
VH: QVQLQESGPGLVKPSETLSLTCAVSGFSLTSYGVHWIRQPPGKGLEWLGVIWPGGGTNFNSALMSRLTISEDTSKNQVSLKLSSVTAADTAVYYCARDRAYGNYLYAMDYWGQGTLVTVSS
VL: DIQMTQSPSSLSASVGDRVTITCRASESVEYYVASLMQWYQQKPGKAPKLLIYAASNVDSGVPSRFSGSGSGTDFTLTISSLQPEDIATYYCQQSRKVPFTFGGGTKVEIK
notes: OAA format as v34891; also called huTN228 T1036A (VL) OAA
B15: v37874 (antibody, V domains shown)
VH: QVQLQESGPGLVKPSETLSLTCAVSGFSLTSYGVHWIRQPPGKGLEWLGVIWPGGGTNFNSALMSRLTISEDTSKNQVSLKLSSVTAADTAVYYCARDRAYGNYLYAMDYWGQGTLVTVSS
VL: DIQMTQSPSSLSASVGDRVTITCRASESVEYYVTSLMQWYQQKPGKAPKLLIYAASAVDSGVPSRFSGSGSGTDFTLTISSLQPEDIATYYCQQSRKVPFTFGGGTKVEIK
notes: OAA format; also called huTN228 N1066A (VL) OAA
B16: v37875 (antibody, V domains shown)
VH: QVQLQESGPGLVKPSETLSLTCAVSGFSLTSYGVHWIRQPPGKGLEWLGVIWPGGGTNFNSALMSRLTISEDTSKNQVSLKLSSVTAADTAVYYCARDRAYGNYLYAMDYWGQGTLVTVSS
VL: DIQMTQSPSSLSASVGDRVTITCRASESVEYYVTSLMQWYQQKPGKAPKLLIYAASNVASGVPSRFSGSGSGTDFTLTISSLQPEDIATYYCQQSRKVPFTFGGGTKVEIK
notes: OAA format as v34891; also called huTN228 D1068A (VL) OAA
B17: v37876 (antibody, V domains shown)
VH: QVQLQESGPGLVKPSETLSLTCAVSGFSLTSYGVHWIRQPPGKGLEWLGVIWPGGGTNFNSALMSRLTISEDTSKNQVSLKLSSVTAADTAVYYCARDRAYGNYLYAMDYWGQGTLVTVSS
VL: DIQMTQSPSSLSASVGDRVTITCRASESVEYYVTSLMQWYQQKPGKAPKLLIYAASNVDAGVPSRFSGSGSGTDFTLTISSLQPEDIATYYCQQSRKVPFTFGGGTKVEIK
notes: OAA format as v34891; also called huTN228 S1069A (VL) OAA
B18: v37878 (antibody, V domains shown)
VH: QVQLQESGPGLVKPSETLSLTCAVSGFSLTSYGVHWIRQPPGKGLEWLGVIWPGGGTNFNSALMSRLTISEDTSKNQVSLKLSSVTAADTAVYYCARDRAYGNYLYAMDYWGQGTLVTVSS
VL: DIQMTQSPSSLSASVGDRVTITCRASESVEYYVTSLMQWYQQKPGKAPKLLIYAASNVDSGVPSRFSGSGSGTDFTLTISSLQPEDIATYYCQQSRAVPFTFGGGTKVEIK
notes: OAA format as v34891; also called huTN228 K1109A (VL) OAA

target: huCD28 (human, UniProt P10747 19-152, limits assumed); assay: SPR, OAA format

| Binder | Fold-change from WT | Kd | koff | kon |
| --- | --- | --- | --- | --- |
| B1 | 1 fold | 87.9 nM | 0.00319 s⁻¹ | 36300 M⁻¹ s⁻¹ |
| B2 | 0.72 fold | 63.4 nM | 0.00322 s⁻¹ | 51100 M⁻¹ s⁻¹ |
| B3 | 0.73 fold | 64 nM | 0.00301 s⁻¹ | 47100 M⁻¹ s⁻¹ |
| B4 | 0.7 fold | 61.6 nM | 0.00313 s⁻¹ | 50800 M⁻¹ s⁻¹ |
| B5 | 2.81 fold | 247 nM | 0.0139 s⁻¹ | 56600 M⁻¹ s⁻¹ |
| B6 | 1.39 fold | 122 nM | 0.00626 s⁻¹ | 51100 M⁻¹ s⁻¹ |
| B7 | 4.69 fold | 412 nM | 0.037 s⁻¹ | 90900 M⁻¹ s⁻¹ |
| B8 | 0.9 fold | 79 nM | 0.0034 s⁻¹ | 43200 M⁻¹ s⁻¹ |
| B9 | 0.84 fold | 73.7 nM | 0.00342 s⁻¹ | 46400 M⁻¹ s⁻¹ |
| B10 | 6.16 fold | 542 nM | 0.0254 s⁻¹ | 47100 M⁻¹ s⁻¹ |
| B11 | 3.91 fold | 344 nM | 0.0221 s⁻¹ | 64700 M⁻¹ s⁻¹ |
| B12 | 5.37 fold | 472 nM | 0.0601 s⁻¹ | 126000 M⁻¹ s⁻¹ |
| B13 | 4.9 fold | 431 nM | 0.0277 s⁻¹ | 67700 M⁻¹ s⁻¹ |
| B14 | 3.08 fold | 271 nM | 0.0258 s⁻¹ | 96800 M⁻¹ s⁻¹ |
| B15 | 0.59 fold | 52.1 nM | 0.00321 s⁻¹ | 61800 M⁻¹ s⁻¹ |
| B16 | 0.53 fold | 46.6 nM | 0.00315 s⁻¹ | 67600 M⁻¹ s⁻¹ |
| B17 | 0.64 fold | 56.4 nM | 0.00326 s⁻¹ | 57800 M⁻¹ s⁻¹ |
| B18 | 1.93 fold | 170 nM | 0.0117 s⁻¹ | 70800 M⁻¹ s⁻¹ |
